Consider two substances from PMC2133122.

The target of assay [1] is mitochondrial Hsp70 (mtHsp70, Ssc1p), wild type (S. cerevisiae (endogenous in yeast mitochondria)) (UniProt P0CS90). As to the kind of experiment: co-IP.
Assay [2] concerns the target mutant mtHsp70 encoded by the allele ssc1-2 (Ssc1-2p) (S. cerevisiae (endogenous in yeast mitochondria)) (UniProt P0CS90). The experiment in a line: co-IP.

Where “and” joins values, the source holds several entries; their conditions need not be identical. Identical values can stand only once. A value given as a limit tells only on which side of the number the result lay.

For “Tim44Δ18 (Tim44 with a deletion of residues 185–202) (natural protein)”, in assay [1], the fold reduction of complex formation with mtHsp70 against authentic Tim44 was 3 fold and 4 fold; the percent reduction of complex formation with mtHsp70 against authentic Tim44 is 70%.
In assay [2], “Su9-DHFR, imported into mitochondria (from UniProt P00375 1-187)” showed a fold efficiency of binding against wild-type mtHsp70 above 4 fold.
